Test results published in patent US20240317847A1 (Bayer, published 2024).
Substitutions are numbered along the chain they refer to.

T1: murine IL-11 (mouse, UniProt P47873 22-199)
T1 sequence: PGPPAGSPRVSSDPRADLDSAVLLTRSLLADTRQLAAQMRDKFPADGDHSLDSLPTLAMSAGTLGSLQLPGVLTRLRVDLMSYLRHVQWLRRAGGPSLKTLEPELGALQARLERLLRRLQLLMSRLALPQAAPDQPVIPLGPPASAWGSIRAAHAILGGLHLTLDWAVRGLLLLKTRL

T2: human IL-11 (human, UniProt P20809 22-199)
T2 sequence: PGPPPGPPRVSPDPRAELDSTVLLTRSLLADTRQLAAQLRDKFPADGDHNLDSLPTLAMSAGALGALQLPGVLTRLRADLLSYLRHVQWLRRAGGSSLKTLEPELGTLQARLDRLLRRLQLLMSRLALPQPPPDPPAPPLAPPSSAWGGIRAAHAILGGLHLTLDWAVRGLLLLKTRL

T3: human IL2Ra (human, UniProt P01589 22-240, limits assumed)
T3 construct: bought protein, coated on the plate; also called hIL2RA; IL-2 receptor alpha
T3 sequence (looked up): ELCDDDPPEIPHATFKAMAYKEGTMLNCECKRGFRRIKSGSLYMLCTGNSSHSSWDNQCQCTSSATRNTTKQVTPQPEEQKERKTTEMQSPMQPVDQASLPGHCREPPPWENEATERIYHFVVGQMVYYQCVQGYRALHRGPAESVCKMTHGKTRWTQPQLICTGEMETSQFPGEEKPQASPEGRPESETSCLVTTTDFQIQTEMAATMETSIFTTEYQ

B1: TPP-26307 (antibody, V domains shown)
VH: EVQLLESGGGLVQPGGSLRLSCAASGFTFSSYGMHWVRQAPGKGLEWVSVISYDGSYKYYADSVKGRFTISRDNSKNTLYLQMNSLRAEDTAVYYCAAGVPDYWGQGTLVTVSS
VL: QSVLTQPPSASGTPGQRVTISCTGSSSNIGAGYDVHWYQQLPGTAPKLLIYSNNERPSGVPDRFSGSKSGTSASLAISGLRSEDEADYYCAAWDISLNGPVFGGGTKLTVL
B2: TPP-26320 (antibody, V domains shown)
VH: B1 VH
VL: B1 VL with N54E, I95D
B3: TPP-26331 (antibody, V domains shown)
VH: B1 VH with M34G
VL: B1 VL with I95D
B4: TPP-26318 (antibody, V domains shown)
VH: B1 VH
VL: B1 VL with D34F, I95D
B5: TPP-26319 (antibody, V domains shown)
VH: B1 VH
VL: B1 VL with R56K, I95D
B6: TPP-26321 (antibody, V domains shown)
VH: B1 VH
VL: B1 VL with I95L
B7: TPP-26323 (antibody, V domains shown)
VH: B1 VH
VL: B1 VL with I95G
B8: TPP-26310 (antibody, V domains shown)
VH: B1 VH
VL: B1 VL with S58W, I95D
B9: TPP-26327 (antibody, V domains shown)
VH: B1 VH with S52R
VL: B1 VL with I95D
B10: TPP-26311 (antibody, V domains shown)
VH: B1 VH
VL: B1 VL with V35H, I95D
B11: TPP-26325 (antibody, V domains shown)
VH: B1 VH with S31W
VL: B1 VL with I95D
B12: TPP-26317 (antibody, V domains shown)
VH: B1 VH
VL: B1 VL with G32E, I95D
B13: TPP-26326 (antibody, V domains shown)
VH: B1 VH with S31Y
VL: B1 VL with I95D
B14: TPP-26330 (antibody, V domains shown)
VH: B1 VH with S31F
VL: B1 VL with I95D
B15: TPP-26313 (antibody, V domains shown)
VH: B1 VH
VL: B1 VL with G32Y, I95D
B16: TPP-26332 (antibody, V domains shown)
VH: B1 VH with G33K
VL: B1 VL with I95D
B17: TPP-26329 (antibody, V domains shown)
VH: B1 VH with Y32W
VL: B1 VL with I95D
B18: TPP-26315 (antibody, V domains shown)
VH: B1 VH
VL: B1 VL with G32H, I95D
B19: TPP-26309 (antibody, V domains shown)
VH: B1 VH
VL: B1 VL with I95F
B20: TPP-26324 (antibody, V domains shown)
VH: B1 VH with A61R
VL: B1 VL with I95D
B21: TPP-26314 (antibody, V domains shown)
VH: B1 VH
VL: B1 VL with I95W
B22: TPP-26328 (antibody, V domains shown)
VH: B1 VH with G99T
VL: B1 VL with I95D
B23: TPP-26316 (antibody, V domains shown)
VH: B1 VH
VL: B1 VL with I95M
B24: TPP-26308 (antibody, V domains shown)
VH: B1 VH
VL: B1 VL with I95V

Molecular target: T1, murine IL-11
Test: cell-based or functional assay

RGA Efficacy (%)	RGA IC50 [nM]	Binder
92.3	1.9	B1
100	1.5	B2
90.9	1.5	B3
82.3	4.7	B4
91.1	1.5	B5
93.5	1.1	B6
95.9	0.92	B7
94.3	1.1	B8
38	470	B9
86.2	2.2	B10
93	1.3	B11
93.2	1.2	B12
83	2	B13
88.2	1.3	B14
96.2	0.66	B15
0.9	–	B16
95.5	1	B17
91.5	1.5	B18
92.2	0.94	B19
92.4	1.3	B20
94.4	0.8	B21
70.8	64	B22
90.4	1	B23
91.6	1.3	B24

Molecular target: T2, human IL-11
Test: cell-based or functional assay

RGA Efficacy (%)	RGA IC50 [nM]	Binder
52.7	5.3	B1
70.3	7.4	B2
54.9	5.4	B3
45.9	2.4	B4
48.6	7.4	B5
71.3	2.1	B6
57.6	2	B7
59.5	4.5	B8
15	–	B9
38.1	1.9	B10
81.4	1.7	B11
69.9	0.99	B12
72	5.4	B13
64.8	3.4	B14
76.1	1.7	B15
0.8	–	B16
67.1	2.6	B17
68.3	1.7	B18
63.9	1.5	B19
59	1.5	B20
69.3	1.1	B21
18.6	–	B22
69.4	1.6	B23
63.6	5.9	B24

Molecular target: T3, human IL2Ra
Test: IL2Ra direct binding ELISA, signal ratio to isotype control
Experimental: IL2RA (Peprotech, Germany, #200-02RC) was coated at 1 or 0 μg/ml (buffer only control) in 30 μl coating buffer (Candor, #113500) per well on a 384 well microtiter plate (Maxisorb, Nunc, #460518) over night at 4-8° C. After two washes with 50 μl/well washing buffer (PBS+0.05% Tween, pH 7.4), the plates were incubated for two hours at room temperature with 50 μl/well SmartBlock (Candor, #113500). After blocking, the plates were washed three times with washing buffer. Then, a dilution series of the respective antibody (1E-7 [M] down to 2E-13 [M]) in PBS+0.05% Tween, 10% SmartBlock were added in 30 μl to the microtiter plate and incubated for 90 min at room temperature. After three additional washes, 30 μl anti mouse IgG HRP-conjugated antibody (Biotechne, HAF007), diluted 1:1000 in PBS+0.05% Tween (pH 7.4), were added per well and incubated for one hour. After three additional washes, a mixture of Amplex red (Invitrogen, #12222, 10 mM stock solution in DMSO) 1:1000 diluted in PBS and H2O2 (30%, Merck, #107209)) diluted 1:10000 in PBS were added as substrate with 30 μl per well and incubated for 20 min in the dark. Relative fluorescence was measured with a microtiter plate reader at 535/590 nm.
Next, the 42 antibodies were subjected to an IL2Ra binding ELISA as described in Example 20.

hIL2RA ELISA Binding: Ratio to Isotpye [ratio]	Binder
176	B1
260	B2
107	B3
267	B4
235	B5
182	B6
256	B7
231	B8
11	B9
292	B10
542	B11
31	B12
516	B13
264	B14
195	B15
19	B16
247	B17
205	B18
234	B19
247	B20
455	B21
27	B22
221	B23
188	B24
